Results taken from the supplement of paper PMC12764529.
± gives the half width of the 95% confidence interval.

How the values were obtained:
[1] = folding stability dG unfold from chymotrypsin proteolysis; higher = more stable
Outline: (§1)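 Bayesian fitting of sequencing counts gave K50 for each design. Unfolding free energy followed by setting this against a sequence-predicted unfolded-state K50 and a shared folded-state K50, either per protease or with trypsin and chymotrypsin combined. The designs, under 80 residues and lacking cysteine, were digested in a PA-tagged cDNA display format at 11 threefold-diluted protease concentrations and without protease, and only those with AlphaFold2 dimer inter-PAE above 15 were kept.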

[2] = folding stability dG unfold from trypsin proteolysis; higher = more stable
Outline: as §1

[3] = folding stability dG unfold (combined trypsin and chymotrypsin); higher = more stable
Outline: as §1

Sequence	folding stability dG unfold [1] [kcal/mol]	folding stability dG unfold [2] [kcal/mol]	folding stability dG unfold [3] [kcal/mol]
SAGMVVLTEPGNGRLVVSELPEELAEEIARELGLPDITPVPPGVPAEEARAAHPALTAALEIPPEVLLSAGG [r19_270_JUSTAS]	0.0886 ± 0.032	-0.149 ± 0.16	0.0846 ± 0.14
SAGMVVVEIRTRDGRTLTVEVEAESEEEAERLARELAEELRRKFPDLEIRVERVEPPEPPEEVVEEEEESAG [r5_950_TrROS_Hall]	3.41 ± 0.13	3.23 ± 0.13	3.42 ± 0.21
SAGMYMVTITWEYPNGWTFEFMVFVRGPNPEEAREQVDEAAREIFEQRDHPIKDVKVDVQPMPPGQEISAGG [r19_335_TrROS]	3.18 ± 0.054	1.96 ± 0.064	2.84 ± 0.23
SAGMYSETLLEEREYPDGTKEKLYRITKPGGVEELRLVREPLTFDPNNGGPGRKEEVKTAKPDEEIELESAG [r5_122_JUSTAS]	1.12 ± 0.14	0.721 ± 0.026	1.03 ± 0.1
SAGNIKIEVEELGPGWYVIKVEIPYDSPEQMLDMIKDIIRDFFGEPVKIDEVEIDPDEGWIEKTIRIPLSAG [r5_810_TrROS]	1.64 ± 0.07	1.58 ± 0.067	1.67 ± 0.12
SAGNIQIEPTDGKWRIRITYWMPDPDEITPDTFKNLLRNLGLPIKDIDIEPEPNPNGQRYVTAEIWIPVSAG [r5_922_TrROS]	3.34 ± 0.071	2.84 ± 0.043	3.23 ± 0.059
SAGNKVEIMLMVPMKPDPDGEPEIDPQMIREIAKAAGAEGRVEDVDIQPMPDYYMIRVRLPGKEIWIMSAGG [r19_398_TrROS]	1.1 ± 0.13	1.46 ± 0.031	1.38 ± 0.11
SAGNPPVTITITINPFRHGDEPMYHVKIKNPGGKEREIPFPPDEFKEQIENEFPNIDEIEVEPMRLPPGSAG [r5_25_TrROS]	0.615 ± 0.29	0.207 ± 0.14	0.408 ± 0.49
SAGPAVVIPLPLDPEKWSPEEILEAAIKLAEEAYKAGLPGSVTLLVPVPEKPLLITIDPKTGKITVDPSAGG [r19_204_TrMRF]	1.73 ± 0.066	1.49 ± 0.083	1.63 ± 0.072
SAGPEITREFVSYDPETGLRYFEYTLINKKNGKEVKKVKVGYSLYDLASGTERPLPEEELKKRAEEALKSAG [r5_909_JUSTAS]	0.433 ± 0.16	-0.118 ± 0.13	0.24 ± 0.16
SAGPEPDWVYIKAKVDKGGIKIEWYNPDGPWEFKLPDGEEIYIFIPPGGSPEDMLDEFKNFAKELADKSAGG [r19_170_TrROS]	2.1 ± 0.21	1.41 ± 0.22	2.18 ± 0.71
SAGPGHELKIDIERDPGNGIIKLSITYPNGIKYEMLIFRNPDNGKWFIFINIERDPGRIKIDIGIFPLSAGG [r19_394_TrROS]	5.05 ± 0.13	3.28 ± 0.083	4.7 ± 0.2
SAGPIKEKTITFPNGMRAKITDIQVGPPPDGEPLIKLKVKVEMWQPKRDPDGKQDGWQPMKMEMTLIIPSAG [r5_476_TrROS]	3.91 ± 0.058	2.68 ± 0.18	3.51 ± 0.36
SAGPIKIVVNPDGMLIMVFPHPDGSLMVMIFTFKPNPKNGKRRFEMEMIMIDPDPGDPHVMTMRFEIPPSAG [r5_424_TrROS]	4.88 ± 0.09	3.37 ± 0.15	4.08 ± 0.18
SAGPKAEIINKNGKKISFSAKNIKITSYPEKGILTGIIPKKNKKIEIKVDNNKITLIVYDGGKYKEFPISAG [r5_786_TrMRF]	3.97 ± 0.22	2.07 ± 0.071	2.21 ± 0.55
SAGPKIELEVDPENPNVARAKVIDPANGEEIDEVEVPVTTLPDGTVLVPAKIKYKGSGKTLELPFTVEGSAG [r5_610_TrMRF]	0.133 ± 0.26	-0.4 ± 0.44	-0.126 ± 0.28
SAGPKTITIWFRSPEWIRKLAKELGFEIKKVKRTGDYWSVEFTREGGKNIEIHIPDDALKELGFDLDDISAG [r5_12_TrROS]	2.28 ± 0.089	2.3 ± 0.044	2.25 ± 0.057
SAGPNFKIEIVPNPNGMEPIATIRPPGRTIVIYRNSNGGYHVQRFDPNNGKPVKQFNMPAEEIIKEILSAGG [r19_188_TrROS]	0.655 ± 0.34	0.348 ± 0.1	0.551 ± 0.19
SAGPPDWKPIAEFEYNIPMPPGETASEIENEILERIRPQGIKYVTIPVQYDPENGWIQVDVEIWVPPGASAG [r5_924_TrROS]	0.849 ± 0.16	0.898 ± 0.03	0.891 ± 0.11
SAGPPEFELVGEFEAEAPGGVPVRVRVIRLPGGDVLVVVTHPDDTVTLGFIPAETGEWHLALSFPADVLSAG [r5_750_TrMRF]	2.369 ± 0.014	2.82 ± 0.057	2.58 ± 0.057
SAGPPIWIRAEIEHPRPNPDDGEPQERKREVWIRLPEDLLENGMPVEELAKELASNYPGYKVKIDEILSAGG [r19_110_TrROS]	-0.915 ± 0.38	0.552 ± 0.026	0.159 ± 0.15

Sequence	folding stability dG unfold [1] [kcal/mol]	folding stability dG unfold [2] [kcal/mol]	folding stability dG unfold [3] [kcal/mol]
SAGPTVRIHLPGFEPIRFPPGDELALPFPNGYYLIIRRKPDGEVEVFPMGGEERKLPDADEVEIYMFPASAG [r5_869_TrROS]	1.32 ± 0.15	0.665 ± 0.11	1.07 ± 0.13
SAGPTVTVELEIRLPPELRGLSPEELAELLARELEEAGYTVEVVEVEEEDGYVTVRVRVTVPLPPPPPESAG [r5_80_TrROS_Hall]	3.29 ± 0.13	3.59 ± 0.11	3.52 ± 0.13
SAGPVIATADVEVYEDGTAKITLTLRTLTENGELLPDVTLPITLPLPPGSKATITVNLDDGEITITVGDSAG [r5_179_TrMRF]	3.79 ± 0.16	4.07 ± 0.12	3.96 ± 0.11
SAGPVLLELESPSGGRYRIALPPNVTEIRRVGDRFIIRLPDGFSLVIEVDEDEPPSTLNDIKILAVIPSAGG [r19_274_TrMRF]	2.41 ± 0.045	2.19 ± 0.03	2.38 ± 0.043
SAGPVVEVKPLETQALPDGSVRVVAEVTIKDPNSEKTTVVTVEATARVAPDGRPVSIEEIVEKAIKELKSAG [r5_604_JUSTAS]	1.26 ± 0.046	0.801 ± 0.043	1.06 ± 0.057
SAGPYYIITVTIPLPNLSPDLQEDFPGQKVTFMFIVDPGMDMEQKRQIKEELRDFGIKDVDIMPADDIKSAG [r5_60_TrROS]	2.58 ± 0.03	1.27 ± 0.026	2.2 ± 0.1
SAGQIVTTDPATGVTTVTIPFPDGSYATITITVEKLTPDKESIVSVDVDFKDKGKKVVPAAVLVEEILSSAG [r5_842_JUSTAS]	1.07 ± 0.11	0.25 ± 0.084	0.851 ± 0.17
SAGQLPPGETYTAEIEIRKNEPITLEEIAKKLPGYEFDSVKVEPMPDGWTRITITMTPGDVDKIQDAIRSAG [r5_554_TrROS]	1.87 ± 0.031	0.92 ± 0.044	1.65 ± 0.092
SAGRFIRIRFKDPGMSMDNLVKEIKEELGIPPDHKVTIDWEPDPNGGYEITIQVDDPQVRDKILEALRSAGG [r19_215_TrROS]	2.5 ± 0.081	3.46 ± 0.1	2.97 ± 0.15
SAGRIHFMDSPSQARDQAEENNYPIVIGMDKGSGWMQIAIYKGGKPKPIRQIPPNNPEINRFIKKLGFTSAG [r5_458_TrROS]	-0.14 ± 0.16	0.149 ± 0.093	0.0603 ± 0.14
SAGRIRKAIREAFGMDITSIDIDVKENPNGSKKVEIDIHMNNPSQRRRMADAIIEELGYPIKEIEITPMSAG [r5_542_TrROS]	0.558 ± 0.2	0.748 ± 0.24	0.629 ± 0.17
SAGRITIDPEDWRIEVKPPNGKKREISPDKIQELLREQKQKGKPPTAEEIAEKIMDEFPGYEVEIHPRSAGG [r19_46_TrROS]	1.22 ± 0.073	0.894 ± 0.1	1.06 ± 0.3
SAGRVRLEIVIMIPIDPEQLENLPPSIRDPNGMEIYENGDMIMIKMPIPIPPPPVPDPDGKKMTPEELSAGG [r19_148_TrROS]	0.493 ± 0.11	1.44 ± 0.052	0.982 ± 0.24
SAGSAYRIEVYNPETGKKVEIFVFPNGEALVKEEDGFSKIYIDPSKPEQVEAIAKEIEPLGVEVKISPWSAG [r5_791_TrMRF]	1.29 ± 0.29	1.4 ± 0.1	1.35 ± 0.34
SAGSFKVTLELVLPNGEKLTVENPEDVLAAIKALPSNVTVRVSTPGESETISITGSDGSVFALKIERFKSAG [r5_506_TrMRF]	1.97 ± 0.089	1.68 ± 0.045	1.85 ± 0.1
SAGSIPLDIAKSLGGKTEVSSSPVPLGGGMTATLTTVTATLPDKIVTITITTLADPTVTEVTITTEPIKSAG [r5_323_JUSTAS]	1.23 ± 0.039	1.04 ± 0.068	1.14 ± 0.13
SAGSITIDGLTPDKEQEVKITVTLPLPGGGTVTLELTAKVTYDPATGLAKMPITLPDGTVLPLTLPLPESAG [r5_743_JUSTAS]	1.93 ± 0.074	2.21 ± 0.12	2.1 ± 0.093
SAGSKKYIPKEVTVYVLGTAPPDMSLEEALKNPNFAVSVPLKATVIYDPETKTARVLLPDGTVVEFPVPSAG [r5_701_TrMRF]	1.44 ± 0.11	1.5 ± 0.049	1.52 ± 0.1
SAGSKVIMIPWEDAEKLIEDLPPGKNVTIHWMWPKGPYWTHTIEVKGDKIKIEPLPPNQFPGWRIMITKSAG [r5_85_TrROS]	1.45 ± 0.17	1.86 ± 0.13	1.65 ± 0.22
SAGSMEELIANGGTISEERTLPGGEKVFTTTTLTYAPDGTPVINTETTVTTTPPDGTTTPSTSTSTVPLSAG [r5_24_JUSTAS]	0.957 ± 0.058	1.04 ± 0.038	1.04 ± 0.035
SAGSMELLEKKEGKLPDGRVYTTETLRNPANGLYEVKTFVFEPGGNPLAEERITYEGDKLVSSETIYLGSAG [r14_828_JUSTAS]	0.842 ± 0.075	0.199 ± 0.04	0.594 ± 0.077
